This is an account of results in patent US20220298258A1 (Bristol-Myers Squibb, published 2022).

Assay [1] addresses Human PSGL-1 (P-Selectin Glycoprotein Ligand 1) on primary human T cells / PBMC lymphocytes (human) (UniProt Q14242). As to the kind of experiment: flow cytometry; inhibition of VISTA dextramer binding to activated human CD4+ T cells, pH 6.0. In general terms: A flow cytometer gives signals particle by particle.
The target in assay [2] is T1, fluorescently-conjugated human VISTA dextramer (a streptavidin dextramer loaded with monobiotinylated … (human, UniProt Q9H7M9 33-194, monobiotinylated (avi-tagged in Example 6); loaded on a fluorescently-conjugated streptavidin dextramer).
T1 construct: Multimeric reagent: many biotinylated VISTA molecules on a streptavidin dextramer; also called VISTA dextramers; dextramer loaded with recombinant human avi-tagged VISTA
T1 sequence (looked up): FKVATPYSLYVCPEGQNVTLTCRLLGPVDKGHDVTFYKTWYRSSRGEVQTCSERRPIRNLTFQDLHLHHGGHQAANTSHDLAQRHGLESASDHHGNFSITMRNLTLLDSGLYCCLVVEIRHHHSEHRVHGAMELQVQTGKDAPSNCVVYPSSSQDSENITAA
The description is as above. The procedure: The ability of soluble PSGL-1 to disrupt VISTA dextramer binding to T cells was assessed by incubating activated T cells with fluorescently-conjugated VISTA dextramers (a streptavidin dextramer loaded with a sub-optimal molar ratio of monobiotinylated recombinant human VISTA molecules) in Hanks's Balanced Salt Solution at pH 6.0 and in the presence of titrated concentrations of a control (i.e., non-VISTA or PSGL-1 specific) antibody (dots), recombinant human PSGL-1-Fc fusion protein (triangles), or recombinant human P-selectin (R&D Systems, diamonds). The recombinant human PSGL-1 Fc fusion molecule was obtained from R&D Systems Catalog No. 3345-PS, and comprises the PSGL-1 ECD sequence shown in SEQ ID NO: 18, comprising positions 42-295 of a human PSGL-1 sequence of accession number AA50061 coupled at its C-terminal to an IEGRMD linker sequence (SEQ ID NO: 19) followed by amino acids P100 to K330 of human IgG1. After incubation, the binding of the VISTA dextramer to the T cells was measured by flow cytometry. IC50 values were calculated via nonlinear regression in Prism software (GraphPad). The results, which are shown in FIG. 3 and Table 1, indicate that PSGL-1 and P-selectin inhibit binding of VISTA to the activated CD4+ T cells in a dose dependent manner at acidic pH.

Turning to “recombinant human P-selectin (R&D Systems) (from UniProt P16109 42-771) (receptor)”, the 50% inhibitory concentration (IC50) (usually the midpoint of a concentration-inhibition curve) in assay [1] worked out at 101 nM.

B1: recombinant human PSGL-1-Fc fusion protein (R&D Systems Catalog No. 3345-PS) (Fc fusion)
chain: QATEYEYLDYDFLPETEPPEMLRNSTDTTPLTGPGTPESTTVEPAARRSTGLDAGGAVTELTTELANMGNLSTDSAAMEIQTTQPAATEAQTTPLAATEAQTTRLTATEAQTTPLAATEAQTTPPAATEAQTTQPTGLEAQTTAPAAMEAQTTAPAAMEAQTTPPAAMEAQTTQTTAMEAQTTAPEATEAQTTQPTATEAQTTPLAAMEALSTEPSATEALSMEPTTKRGLFIPFSVSSVTHKGIPMAASNLSVIEGRMD
notes: Bought reagent; also called hPSGL-1-Fc; humPSGL-1-Fc; not shown: human IgG1, amino acids P100 to K330
In assay [2], B1 yielded an IC50 of 20.5 nM.
